# B1: Actin nucleation-promoting factor WAS (Homo sapiens), P42768 (parent)
# chain: MSGGPMGGRPGGRGAPAVQQNIPSTLLQDHENQRLFEMLGRKCLTLATAVVQLYLALPPGAEHWTKEHCGAVCFVKDNPQKSYFIRLYGLQAGRLLWEQELYSQLVYSTPTPFFHTFAGDDCQAGLNFADEDEAQAFRALVQEKIQKRNQRQSGDRRQLPPPPTPANEERRGGLPPLPLHPGGDQGGPPVGPLSLGLATVDIQNPDITSSRYRGLPAPGPSPADKKRSGKKKISKADIGAPSGFKHVSHVGWDPQNGFDVNNLDPDLRSLFSRAGISEAQLTDAETSKLIYDFIEDQGGLEAVRQEMRRQEPLPPPPPPSRGGNQLPRPPIVGGNKGRSGPLPPVPLGIAPPPPTPRGPPPPGRGGPPPPPPPATGRSGPLPPPPPGAGGPPMPPPPPPPPPPPSSGNGPAPPPLPPALVPAGGLAPGGGRGALLDQIRQGIQLNKTPGAPESSALQPPPQSSEGLVGALMHVMQKRSRAIHSSDEGEDQAGDEDEDDEWDD
# B2: Medium-chain acyl-CoA ligase ACSF2, mitochondrial (Homo sapiens), Q96CM8 (parent)
# chain: MAVYVGMLRLGRLCAGSSGVLGARAALSRSWQEARLQGVRFLSSREVDRMVSTPIGGLSYVQGCTKKHLNSKTVGQCLETTAQRVPEREALVVLHEDVRLTFAQLKEEVDKAASGLLSIGLCKGDRLGMWGPNSYAWVLMQLATAQAGIILVSVNPAYQAMELEYVLKKVGCKALVFPKQFKTQQYYNVLKQICPEVENAQPGALKSQRLPDLTTVISVDAPLPGTLLLDEVVAAGSTRQHLDQLQYNQQFLSCHDPINIQFTSGTTGSPKGATLSHYNIVNNSNILGERLKLHEKTPEQLRMILPNPLYHCLGSVAGTMMCLMYGATLILASPIFNGKKALEAISRERGTFLYGTPTMFVDILNQPDFSSYDISTMCGGVIAGSPAPPELIRAIINKINMKDLVVAYGTTENSPVTFAHFPEDTVEQKAESVGRIMPHTEARIMNMEAGTLAKLNTPGELCIRGYCVMLGYWGEPQKTEEAVDQDKWYWTGDVATMNEQGFCKIVGRSKDMIIRGGENIYPAELEDFFHTHPKVQEVQVVGVKDDRMGEEICACIRLKDGEETTVEEIKAFCKGKISHFKIPKYIVFVTNYPLTISGKIQKFKLREQMERHLNL
# partner: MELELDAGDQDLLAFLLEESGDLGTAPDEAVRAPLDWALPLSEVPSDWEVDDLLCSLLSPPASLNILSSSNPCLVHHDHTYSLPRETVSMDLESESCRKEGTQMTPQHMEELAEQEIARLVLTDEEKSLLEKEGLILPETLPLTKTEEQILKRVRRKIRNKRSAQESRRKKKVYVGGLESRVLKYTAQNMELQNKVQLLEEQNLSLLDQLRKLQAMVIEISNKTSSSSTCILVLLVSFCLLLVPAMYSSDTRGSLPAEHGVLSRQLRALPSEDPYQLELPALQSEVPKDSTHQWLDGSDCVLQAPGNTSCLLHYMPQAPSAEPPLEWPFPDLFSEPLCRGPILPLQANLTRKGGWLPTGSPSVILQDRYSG
# B3: Protein phosphatase 1 regulatory inhibitor subunit 16B (Homo sapiens), Q96T49 (parent)
# chain: MASHVDLLTELQLLEKVPTLERLRAAQKRRAQQLKKWAQYEQDLQHRKRKHERKRSTGGRRKKVSFEASVALLEASLRNDAEEVRYFLKNKVSPDLCNEDGLTALHQCCIDNFEEIVKLLLSHGANVNAKDNELWTPLHAAATCGHINLVKILVQYGADLLAVNSDGNMPYDLCEDEPTLDVIETCMAYQGITQEKINEMRVAPEQQMIADIHCMIAAGQDLDWIDAQGATLLHIAGANGYLRAAELLLDHGVRVDVKDWDGWEPLHAAAFWGQMQMAELLVSHGASLSARTSMDEMPIDLCEEEEFKVLLLELKHKHDVIMKSQLRHKSSLSRRTSSAGSRGKVVRRASLSDRTNLYRKEYEGEAILWQRSAAEDQRTSTYNGDIRETRTDQENKDPNPRLEKPVLLSEFPTKIPRGELDMPVENGLRAPVSAYQYALANGDVWKVHEVPDYSMAYGNPGVADATPPWSSYKEQSPQTLLELKRQRAAAKLLSHPFLSTHLGSSMARTGESSSEGKAPLIGGRTSPYSSNGTSVYYTVTSGDPPLLKFKAPIEEMEEKVHGCCRIS
# Variants of: B1
# Settings: with cdc42_human CDC42, P60953
# cdc42_human CDC42, P60953, sequence (P60953 whole entry, looked up): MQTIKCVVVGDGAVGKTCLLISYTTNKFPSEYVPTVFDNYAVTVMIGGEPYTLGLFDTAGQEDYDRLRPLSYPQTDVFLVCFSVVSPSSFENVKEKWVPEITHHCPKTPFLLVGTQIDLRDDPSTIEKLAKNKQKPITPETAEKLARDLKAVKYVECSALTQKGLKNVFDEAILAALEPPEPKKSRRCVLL
row,Variant,effect of a mutation on the interaction
1,E131K,with no effect

# Variants of: B2
# Settings: with creb3_human CREB3, O43889
row,Variant,effect of a mutation on the interaction
1,A34V,disrupting interaction strength
2,G19W,disrupting interaction strength

# Variants of: B3
# Settings: with crx_human CRX
row,Variant,effect of a mutation on the interaction
1,P519S,with no effect

# Variants of: B3
# Settings: with ikzf3_human IKZF3, Q9UKT9
# ikzf3_human IKZF3, Q9UKT9, sequence (Q9UKT9 whole entry): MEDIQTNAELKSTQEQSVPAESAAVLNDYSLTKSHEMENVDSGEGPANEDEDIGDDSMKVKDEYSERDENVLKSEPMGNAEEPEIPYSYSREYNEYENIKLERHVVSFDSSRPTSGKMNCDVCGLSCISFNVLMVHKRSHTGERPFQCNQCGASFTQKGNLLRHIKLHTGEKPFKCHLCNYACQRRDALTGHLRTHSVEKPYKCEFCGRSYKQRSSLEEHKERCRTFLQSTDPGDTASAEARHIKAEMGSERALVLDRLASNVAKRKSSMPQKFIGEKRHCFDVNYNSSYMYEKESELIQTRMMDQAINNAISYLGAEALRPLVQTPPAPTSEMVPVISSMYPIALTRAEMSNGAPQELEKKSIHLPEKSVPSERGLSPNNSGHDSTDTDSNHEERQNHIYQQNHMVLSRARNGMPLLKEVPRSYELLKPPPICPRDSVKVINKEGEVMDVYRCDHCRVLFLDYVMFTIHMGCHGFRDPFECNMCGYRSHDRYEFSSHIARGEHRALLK
row,Variant,effect of a mutation on the interaction
1,P519S,with no effect

# Variants of: B3
# Settings: with sf3b4_human SF3B4, Q15427
# sf3b4_human SF3B4, Q15427, sequence (Q15427 whole entry): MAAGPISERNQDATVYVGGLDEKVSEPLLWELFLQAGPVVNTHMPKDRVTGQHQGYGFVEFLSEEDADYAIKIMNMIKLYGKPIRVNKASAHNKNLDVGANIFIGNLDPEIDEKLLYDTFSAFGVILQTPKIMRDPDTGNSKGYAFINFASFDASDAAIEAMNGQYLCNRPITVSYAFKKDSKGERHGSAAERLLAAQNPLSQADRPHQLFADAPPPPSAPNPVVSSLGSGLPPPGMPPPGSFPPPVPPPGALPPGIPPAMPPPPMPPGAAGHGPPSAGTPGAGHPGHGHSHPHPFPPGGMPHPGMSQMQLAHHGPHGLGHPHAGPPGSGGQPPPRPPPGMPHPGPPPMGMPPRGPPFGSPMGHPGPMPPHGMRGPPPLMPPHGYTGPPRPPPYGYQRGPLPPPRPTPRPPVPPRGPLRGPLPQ
row,Variant,effect of a mutation on the interaction
1,P519S,with no effect

# Source: IntAct's records for PubMed 31515488
